Test results reported in patent publication US20250049852A1 (SHANGHAI IASO BIOTECHNOLOGY, published 2025).

Assays:
[1] = biological target: T1, Biotinylated Human IL-10 Protein (human, UniProt P22301 19-178, biotinylated); assay: phage ELISA, coated antigen, detection anti-M13 then HRP anti-mouse IgG
T1 construct: also called IL10-Bio

Streptavidin [2] = biological target: T2, Streptavidin (UniProt P22629 37-163, limits assumed); assay: as above
T2 construct: also called SA

Human GPRC5D Protein-VLP [3] = biological target: T3, Human GPRC5D Protein-VLP (human, UniProt Q9NZD1 1-345); assay: as above
T3 construct: Bought reagent; also called GPRC5D-VLP; target antigen

[4] = biological target: T4, Biotinylated Recombinant human BAFFR Protein (human, UniProt Q96RJ3 7-71, limits assumed, biotinylated); assay: as above
T4 construct: The label says that it carries a his tag; also called BAFFR-his-Bio
T4 sequence (looked up): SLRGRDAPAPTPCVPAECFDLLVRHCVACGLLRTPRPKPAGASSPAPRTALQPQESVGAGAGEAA

[5] = biological target: T5, human GPRC5D expressed on the cell surface (CHO-K1-GPRC5D cells; MM1S, U266, 8226, H929 cells) (human, UniProt Q9NZD1 1-345); assay: FACS titration (300 nM to 0.00384 nM) on CHO-K1-GPRC5D cells
T5 construct: whole, on cells; The cell line used is named under assay or readout in each row; also called GPRC5D-positive cells

[6] = biological target: T6, murine-derived GPRC5D overexpressed on CHOS cells (CHOS-mouseGPRC5D) (mouse (murine-derived), UniProt Q9JIL6 1-344); assay: FACS titration on CHOS-mouse-GPRC5D cells (lower graph)
T6 construct: whole, on cells; also called GPRC5D murine-derived positive cell line
T6 sequence (looked up): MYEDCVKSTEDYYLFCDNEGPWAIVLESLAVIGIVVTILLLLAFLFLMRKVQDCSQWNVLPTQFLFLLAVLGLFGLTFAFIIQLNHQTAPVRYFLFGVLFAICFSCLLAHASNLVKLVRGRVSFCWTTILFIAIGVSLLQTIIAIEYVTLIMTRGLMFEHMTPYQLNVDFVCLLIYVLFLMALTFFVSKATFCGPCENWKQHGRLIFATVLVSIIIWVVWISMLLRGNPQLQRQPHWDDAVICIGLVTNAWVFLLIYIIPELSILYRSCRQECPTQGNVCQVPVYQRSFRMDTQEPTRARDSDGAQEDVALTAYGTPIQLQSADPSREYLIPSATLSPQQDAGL

[7] = biological target: T1, Biotinylated Human IL-10 Protein; assay: ELISA, coated antigen, purified IgG-form antibody, detection HRP anti-human IgG
Streptavidin [8] = biological target: T2, Streptavidin; assay: as above
Human GPRC5D Protein-VLP [9] = biological target: T3, Human GPRC5D Protein-VLP; assay: as above
[10] = biological target: T4, Biotinylated Recombinant human BAFFR …; assay: as above
[11] = biological target: T7, monkey-derived GPRC5D overexpressed on CHOS cells (CHOS-macaqueGPRC5D) (macaque (monkey-derived)); assay: FACS titration on CHOS-macaque-GPRC5D cells (upper graph)
T7 construct: whole, on cells; also called CHOS-macaqaueGPRC5D; GPRC5D monkey-derived positive cell line

[12] = biological target: T5, human GPRC5D expressed on the cell …; assay: cell-based or functional assay
[13] = biological target: T5, human GPRC5D expressed on the cell …; assay: cell-based or functional assay; remark: listed apart in the source
[14] = biological target: T5, human GPRC5D expressed on the cell …; assay: cell-based or functional assay; remark: listed apart in the source

T5 sequence (Q9NZD1 whole entry): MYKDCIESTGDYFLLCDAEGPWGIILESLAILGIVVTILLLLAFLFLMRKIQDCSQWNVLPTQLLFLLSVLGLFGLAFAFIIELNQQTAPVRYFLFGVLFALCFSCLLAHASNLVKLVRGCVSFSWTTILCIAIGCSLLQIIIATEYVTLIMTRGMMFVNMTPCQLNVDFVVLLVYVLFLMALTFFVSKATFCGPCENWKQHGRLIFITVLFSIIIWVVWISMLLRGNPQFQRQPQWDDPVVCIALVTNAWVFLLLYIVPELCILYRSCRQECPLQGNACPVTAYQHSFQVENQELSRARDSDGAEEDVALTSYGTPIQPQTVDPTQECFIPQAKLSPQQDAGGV
T3 sequence (Q9NZD1 whole entry): as above
T2 sequence (P22629 37-163 limits assumed): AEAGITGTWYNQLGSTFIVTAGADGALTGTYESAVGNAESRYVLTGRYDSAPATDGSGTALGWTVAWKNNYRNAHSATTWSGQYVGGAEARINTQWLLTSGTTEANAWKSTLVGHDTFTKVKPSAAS
T1 sequence (P22301 19-178 limits assumed): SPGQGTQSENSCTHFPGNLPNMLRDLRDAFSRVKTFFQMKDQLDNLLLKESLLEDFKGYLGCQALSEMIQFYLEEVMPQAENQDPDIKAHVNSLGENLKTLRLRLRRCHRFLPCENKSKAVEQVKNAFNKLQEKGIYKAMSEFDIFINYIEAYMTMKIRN

B1: clone #39, single domain antibody displayed as monoclonal phage (phage level) (VHH)
VHH: EVQLLESGGGLVQPGGSLRLSCAASGFIFSSYGMGWVRQAPGKGLEWVSSISSSGDYTYYADSVKGRFTISRDNSKNTLYLQMNSLRAEDTAVYYCARMSFRRYDHWGQGTLVTVSS
notes: Tested as a monoclonal phage antibody (M13 display, detected with anti-M13); also called clone number 39
[1]
  binding result: no binding
Streptavidin [2]
  binding result: no binding
Human GPRC5D Protein-VLP [3]
  binding result: binds
[4]
  binding result: no binding

B2: Clone 39, antibody in the IgG form (protein level) (antibody, V domains shown)
VH: B1 VHH
notes: Expressed from an IgG expression plasmid in CHOS cells, purified by Protein A 'into the IgG form', detected with anti-human IgG Fc gamma; also called anti-GPRC5D IgG
[5]
  EC50: 6.93 nM
  TOP (MFI): 2800 MFI
[6]
  binding result: binds
[7]
  binding result: no binding
Streptavidin [8]
  binding result: no binding
Human GPRC5D Protein-VLP [9]
  binding result: binds
[10]
  binding result: no binding

B3: clone #41, single domain antibody displayed as monoclonal phage (phage level) (VHH)
VHH: EVQLLESGGGLVQPGGSLRLSCAASGFSFSGYIMGWVRQAPGKGLEWVSSTSSSGTETYYADSVKGRFTISRDNSKNTLYLQMNSLRAEDTAVYYCARYYSKYGRSYHVDSWGQGTLVTVSS
notes: Tested as a monoclonal phage antibody (M13 display, detected with anti-M13); also called clone number 41
[1]
  binding result: no binding
Streptavidin [2]
  binding result: no binding
Human GPRC5D Protein-VLP [3]
  binding result: binds
[4]
  binding result: no binding

B4: Clone 41, antibody in the IgG form (protein level) (antibody, V domains shown)
VH: B3 VHH
notes: as for B2
[5]
  EC50: 41 nM
  TOP (MFI): 3690 MFI
[6]
  binding result: binds
[11]
  EC50 (read off the curve): ~7 nM
[7]
  binding result: no binding
Streptavidin [8]
  binding result: no binding
Human GPRC5D Protein-VLP [9]
  binding result: binds
[10]
  binding result: no binding

B5: CAR 2254 (Benchmark1), on CAR-T cells (other)
chain: GSQVQLVQSGAEVKKPGASVKVSCKASGYSFTGYTMNWVRQAPGQGLEWMGLINPYNSDTNYAQKLQGRVTMTTDTSTSTAYMELRSLRSDDTAVYYCARVALRVALDYWGQGTLVTVSSGGGGSGGGGSGGGGSDIQMTQSPSSLSASVGDRVTITCKASQNVATHVGWYQQKPGKAPKRLIYSASYRYSGVPSRFSGSGSGTEFTLTISNLQPEDFATYYCQQYNRYPYTFGQGTKLEIKSRFVPVFLPAKPTTTPAPRPPTPAPTIASQPLSLRPEACRPAAGGAVHTRGLDFACDIYIWAPLAGTCGVLLLSLVITLYCNHRNKRGRKKLLYIFKQPFMRPVQTTQEEDGCSCRFPEEEEGGCELRVKFSRSADAPAYQQGQNQLYNELNLGRREEYDVLDKRRGRDPEMGGKPRRKNPQEGLYNELQKDKMAEAYSEIGMKGERRRGKGHDGLYQGLSTATKDTYDALHMQALPPR
[12]
  CD107a+/CAR+CD8+% after co-incubation with 8226 (GPRC5D+) cells: 45%
  CD107a+/CAR+CD8+% after co-incubation with MM.1S (GPRC5D+) cells: 50.7%
  CD107a+/CAR+CD8+% after co-incubation with U266 (GPRC5D+) cells: 9.68%
[13]
  Proliferation fold, 1st round stimulation by target cells 8226: 7.15 fold
  Proliferation fold, 2nd round stimulation by target cells 8226: 41.9 fold
  Proliferation fold, 3rd round stimulation by target cells 8226: 101 fold
  Proliferation fold, 4th round stimulation by target cells 8226: 172 fold
  Proliferation fold, 5th round stimulation by target cells 8226: 240 fold
  Proliferation fold, 6th round stimulation by target cells 8226: 321 fold
  Proliferation fold, 7th round stimulation by target cells 8226: 313 fold
[14]
  IFN-γ (IFN+/CAR+ %) after co-incubation with 8226-luc (GPRC5D+) cells: 25.1%
  IFN-γ (IFN+/CAR+ %) after co-incubation with H929-luc (GPRC5D+) cells: 12.2%
  IFN-γ (IFN+/CAR+ %) after co-incubation with MM1.s-luc (GPRC5D+) cells: 31.1%
  IFN-γ (IFN+/CAR+ %) after co-incubation with U266-luc (GPRC5D+) cells: 5.25%
  TNF-α (TNFα+/CAR+ %) after co-incubation with 8226-luc (GPRC5D+) cells: 12%
  TNF-α (TNFα+/CAR+ %) after co-incubation with H929-luc (GPRC5D+) cells: 5.21%
  TNF-α (TNFα+/CAR+ %) after co-incubation with MM1.s-luc (GPRC5D+) cells: 17.7%
  TNF-α (TNFα+/CAR+ %) after co-incubation with U266-luc (GPRC5D+) cells: 1.12%

B6: clone #18, single domain antibody displayed as monoclonal phage (phage level) (VHH)
VHH: QVQLQQWGAGLLKPSETLSLTCAVYGGSFSGYYWSWIRQPPGKGLEWIGEINHSGSTNYNPSLKSRVTISVDTSKNQFSLKLSSVTAADTAVYYCARARRYGGRTRFDPWGQGTLVTVSS
notes: Tested as a monoclonal phage antibody (M13 display, detected with anti-M13); also called clone number 18
[1]
  binding result: no binding
Streptavidin [2]
  binding result: no binding
Human GPRC5D Protein-VLP [3]
  binding result: binds
[4]
  binding result: no binding

B7: Clone 18, antibody in the IgG form (protein level) (antibody, V domains shown)
VH: B6 VHH
notes: as for B2
[5]
  EC50: 1.58 nM
  TOP (MFI): 3460 MFI
[6]
  EC50 (read off the curve): ~2 nM
[11]
  EC50 (read off the curve): ~10 nM
[7]
  binding result: no binding
Streptavidin [8]
  binding result: no binding
Human GPRC5D Protein-VLP [9]
  binding result: binds
[10]
  binding result: no binding

B8: GPRC5D CAR 2436 (#39), on CAR-T cells (other)
chain: EVQLLESGGGLVQPGGSLRLSCAASGFIFSSYGMGWVRQAPGKGLEWVSSISSSGDYTYYADSVKGRFTISRDNSKNTLYLQMNSLRAEDTAVYYCARMSFRRYDHWGQGTLVTVSSFVPVFLPAKPTTTPAPRPPTPAPTIASQPLSLRPEACRPAAGGAVHTRGLDFACDIYIWAPLAGTCGVLLLSLVITLYCNHRNKRGRKKLLYIFKQPFMRPVQTTQEEDGCSCRFPEEEEGGCELRVKFSRSADAPAYQQGQNQLYNELNLGRREEYDVLDKRRGRDPEMGGKPRRKNPQEGLYNELQKDKMAEAYSEIGMKGERRRGKGHDGLYQGLSTATKDTYDALHMQALPPR
[12]
  CD107a+/CAR+CD8+% after co-incubation with 8226 (GPRC5D+) cells: 76.5%
  CD107a+/CAR+CD8+% after co-incubation with MM.1S (GPRC5D+) cells: 63.5%
  CD107a+/CAR+CD8+% after co-incubation with U266 (GPRC5D+) cells: 78.8%
[13]
  Proliferation fold, 1st round stimulation by target cells 8226: 10.1 fold
  Proliferation fold, 2nd round stimulation by target cells 8226: 51.2 fold
  Proliferation fold, 3rd round stimulation by target cells 8226: 146 fold
  Proliferation fold, 4th round stimulation by target cells 8226: 330 fold
  Proliferation fold, 5th round stimulation by target cells 8226: 595 fold
  Proliferation fold, 6th round stimulation by target cells 8226: 1160 fold
  Proliferation fold, 7th round stimulation by target cells 8226: 2050 fold
[14]
  IFN-γ (IFN+/CAR+ %) after co-incubation with 8226-luc (GPRC5D+) cells: 54.8%
  IFN-γ (IFN+/CAR+ %) after co-incubation with H929-luc (GPRC5D+) cells: 57.6%
  IFN-γ (IFN+/CAR+ %) after co-incubation with MM1.s-luc (GPRC5D+) cells: 50.9%
  IFN-γ (IFN+/CAR+ %) after co-incubation with U266-luc (GPRC5D+) cells: 49%
  TNF-α (TNFα+/CAR+ %) after co-incubation with 8226-luc (GPRC5D+) cells: 45%
  TNF-α (TNFα+/CAR+ %) after co-incubation with H929-luc (GPRC5D+) cells: 51.6%
  TNF-α (TNFα+/CAR+ %) after co-incubation with MM1.s-luc (GPRC5D+) cells: 38.5%
  TNF-α (TNFα+/CAR+ %) after co-incubation with U266-luc (GPRC5D+) cells: 42.5%
